In patent US20060165695A1 (Kyowa Kirin, published 2006):

Key:
[1] = biological target: T1, human insulin-like growth factor I (hIGF-I) (human, UniProt P05019 49-118); test: SPR (Biacore 2000), ratio of KA values
T1 construct: mature; In the ELISAs it was immobilised as a conjugate with methylated BSA; In SPR it was amine-coupled to the chip; also called human IGF-I; recombinant hIGF-I
Protocol: (§1) In order to analyze binding activity of the anti-hIGF antibody KM1468 to an antigen hIGF-I or hIGF-II, binding strengths of the anti-hIGF antibody KM1468, a commercially available anti-hIGF-I antibody sm1.2 and a commercially available anti-hIGF-II antibody S1F2 to hIGF-I and hIGF-II were measured in the following manner using the biosensor Biacore 2000 (manufactured by BIACORE) use of a surface plasmon resonance. HBS-EP (10 mM HEPES, 150 mM NaCl, 3 mM EDTA, 0.005% Tween 20, pH 7.4) (manufactured by BIACORE) was used for the dilution of analytes and as the reaction buffer.
(§2) The reaction was carried out at 25° C. Association rate constant Kass and dissociation constant Kdiss were calculated from the binding reaction curves at respective concentrations, and the binding constant KA (M⁻¹) of each of these antibodies was calculated. The binding constant KA is calculated by KA=Kass/Kdiss.

[2] = biological target: T2, human insulin-like growth factor II (hIGF-II) (human, UniProt P01344 25-91); test: SPR (Biacore 2000), ratio of KA values
T2 construct: In the ELISA it was immobilised as a conjugate with methylated BSA; In SPR it was amine-coupled to the chip; also called human IGF-II; methylated BSA-hIGF-II (immobilised conjugate)
Protocol: as §1, §2

[3] = biological target: T3, hIGF-I partial peptide p1-18 (human); test: competitive ELISA: KM1468 (4.0 µg/ml) on immobilised methylated BSA-hIGF-I, peptide as competitor
T3 peptide: GPETLSGAELVDALQFVC

[4] = biological target: T4, hIGF-I partial peptide p14-30 (human); test: as above
T4 peptide: CLQFVAGDRGFYFNKPTG

[5] = biological target: T5, hIGF-I partial peptide p24-35 (human); test: as above
T5 peptide: CYFNKPTGYGSSS

[6] = biological target: T6, hIGF-I partial peptide p29-41 (human); test: as above
T6 peptide: CTGYGSSSRRAPQT

[7] = biological target: T7, hIGF-I partial peptide p36-47 (human); test: as above
T7 peptide: RRAPQTGIVDEC

[8] = biological target: T8, hIGF-I partial peptide p41-56 (human); test: as above
T8 peptide: CTGIVDEAAFRSADLRR

[9] = biological target: T9, hIGF-I partial peptide p52-70 (human); test: as above
T9 peptide: CDLRRLEMYAAPLKPAKSA

[10] = biological target: T10, hIGF-I partial peptide p53-61 (human); test: as above
T10 peptide: DLRRLEMYC

[11] = biological target: T11, hIGF-I partial peptide p61-70 (human); test: as above
T11 peptide: CAPLKPAKSA

[12] = biological target: T12, hIGF-I partial peptide p41-56C (human); test: as above
T12 peptide: CTGIVDECCFRSCDLRR

[13] = biological target: T1, human insulin-like growth factor I …; test: SPR (Biacore 2000), hIGF-I amine-coupled to CM-5 chip, antibody as analyte, 25 °C; KA=Kass/Kdiss
Protocol: as §1, §2

[14] = biological target: T2, human insulin-like growth factor II …; test: SPR (Biacore 2000), hIGF-II amine-coupled to CM-5 chip, antibody as analyte, 25 °C; KA=Kass/Kdiss
Protocol: as §1, §2

[15] = biological target: T13, human insulin (manufactured by Wako Pure Chemical Industries) (human, UniProt P01308 25-54; P01308 90-110); test: competitive ELISA: KM1468 (0.6 µg/ml) on immobilised methylated BSA-hIGF-I or methylated BSA-hIGF-II, insulin as competitor
T13 construct: Bought reagent
Source text: Cross reactivity of the purified anti-hIGF antibody KM1468 with hIGF-II and human insulin was examined by the competitive ELISA shown below. As the antigens, hIGF-I (manufactured by Pepro Tech), hIGF-II (manufactured by Pepro Tech) and human insulin (manufactured Wako Pure Chemical Industries) were used.
The methylated BSA-hIGF-I antigen prepared in Example 1(1) or a methylated BSA-hIGF-II antigen prepared in the same manner as in Example 1(1) was immobilized on a plate in accordance with the method shown in Example 1(4), at a concentration of 0.1 μg/ml in the case of the methylated BSA-hIGF-I antigen, or at a concentration of 1.0 μg/ml in the case of the methylated BSA-hIGF-II antigen, KM1468 diluted to 0.6 μg/ml was dispensed therein in 25 μl/well portions, and then each of 4-fold serial dilutions of hIGF-I, hIGF-II or human insulin prepared by starting from 20 μg/ml was dispensed in 25 μl/well portions, mixed and allowed to react at room temperature for 1 hour. After the reaction and subsequent washing with Tween-PBS, 1,000 times-diluted peroxidase-labeled rabbit anti-rat Ig antibody (manufactured by DAKO) was added in 50 μl/well portions as the secondary antibody in the case of the anti-hIGF antibody KM1468. […] The results are represented by relative values (%) wherein OD415 when an antibody alone is added is defined as 100.

T1 sequence (P05019 49-118): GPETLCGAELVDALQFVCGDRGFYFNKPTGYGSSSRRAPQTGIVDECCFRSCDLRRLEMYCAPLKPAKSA
T2 sequence (P01344 25-91 limits assumed): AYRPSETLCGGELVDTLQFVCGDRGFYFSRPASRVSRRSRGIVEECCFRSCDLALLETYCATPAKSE
T13 sequence (P01308 25-54 limits assumed, chain 1 of 2): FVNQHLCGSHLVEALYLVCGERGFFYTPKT
T13 sequence (P01308 90-110 limits assumed, chain 2 of 2): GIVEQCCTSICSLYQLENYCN

B1: anti-hIGF rat monoclonal antibody KM1468 (antibody, V domains shown)
VH: EVHLVESGGGLVQPGRSLKLSCAASGFTFSNYYMTWVRQAPTKGLEWVAYISSGGGSTYYRDSVKGRFTISRDNAKSTLYLQMDSLRSEDTATYYCTTEDYGYWFAYWGQGTLVTVSS
VL: EIVLTQSPTTMAASPGEKVTITCRASSSVSYMHWFQQKSGTSPKPWIYGTSKLASGVPDRFSGSGSGTSYSLTISSMEAEDAATYYCLQRSSYPPTFGAGTKLELKR
notes: Rat IgG2b with kappa L chain, purified from ascites; The ranges 20-137 and 23-129 are counted from the first residue of the entry; also called anti-hIGF antibody KM1468; anti-hIGF rat antibody KM1468
fold KA versus S1F2 [1]: ~18 fold | fold KA versus sm1.2 [1]: ~42 fold | fold KA versus S1F2 [2]: ~3.6 fold | fold KA versus sm1.2 [2]: ~120 fold | binding result [3]: no binding | binding result [4]: no binding | binding result [5]: no binding | binding result [6]: no binding | binding result [7]: no binding | binding result [8]: no binding | binding result [9]: no binding | binding result [10]: no binding | binding result [11]: no binding | binding result [12]: no binding | Ka [13]: 7.86e+09 M⁻¹ | Ka [14]: 8.63e+09 M⁻¹ | binding result [15]: no binding
